This note sets out measurements from patent US5876717A (Ajinomoto Co., Inc., dated 1999).

Test [1] deals with β chain of human IL-2 receptor (human, UniProt P14784). Kind of test: competition with 125I-labelled TU27 or TU25 antibody on YT cells. The protocol:
In an RPMI-1640 culture medium containing 0.5% BSA and 0.02% NaN_2 there were suspended 5×10^5 YT cells to which were added polypeptide Fv(TU27), TU27 antibody, polypeptide Fv(TU25) and TU25 antibody diluted with the same type culture medium to an appropriate concentration and then reacted for one hour at 4° C. Then a TU27 or TU25 antibody labelled with ^125I according to the chloramine T method was added to the mixture which was subjected to a 2 hour reaction at 4° C., after which the radioactivity bound to cell surfaces was measured.

The test system of a further test is β chain of IL-2 receptor. Put plainly: Inhibition of binding of 125I-labelled IL-2 to MOLT4 cells transfected with cDNA for the β chain of IL-2 receptor. Details: species or system human. Particulars: 4° C. The protocol: To the resulting suspension were added polypeptide Fv(TU27), TU27 monoclonal antibody (originating in hybridoma FERM BP-2510), polypeptide Fv(TU25) and TU25 monoclonal antibody (originating in hybridoma FERM BP-3529) diluted with the same type culture medium to an appropriate concentration, and this was reacted for one hour at 4° C.

The test system of test [2] is β chain of IL-2 receptor on the surface of each YT cell. Put plainly: Inhibition of binding of 125I-labelled TU27 or TU25 antibody to YT cells. Details: species or system human. Particulars: 4° C. The protocol:
In an RPMI-1640 culture medium containing 0.5% BSA and 0.02% […] there were suspended 5×10^5 YT cells to which were added polypeptide Fv(TU27), TU27 antibody, polypeptide Fv(TU25) and TU25 antibody diluted with the same type culture medium to an appropriate concentration and then reacted for one hour at 4° C. Then a TU27 or TU25 antibody labelled with ^125 I according to the chloramine T method was added to the mixture which was subjected to a 2 hour reaction at 4° C., after which the radioactivity bound to cell surfaces was measured.

B1: polypeptide Fv(TU25) (scFv)
scFv: MDIQLTQSPAILSVSPGERVSFSCRASQTIGTSIHWYQQRTNGSPRLLIKYASESISGIPSRFSGSGSGTDFTLSINNVESEDIADYYCQQTNTWPTTFGSGTKLELKVDKSSGSGSESKSTQVKLEQSGGGLVKPGGSLKLSCAASGFAFSSYDMSWVRQTPEKRLNWVATFSSDGSDTDYPDSVKGRFTISRDNARNTLYLQMSSLRSEDTALYYCARGYPYAMDYWGQGTTVTVSS
In the case of B1, the binding result in test [1] is “binds”. In the test on β chain of IL-2 receptor, the “activity to inhibit the binding of IL-2 to a β chain of an IL-2 receptor” value was “have activity to inhibit the binding of IL-2”. Moreover, the “activity to inhibit the binding between TU27 or TU25 monoclonal antibody and the β chain of IL-2 receptor” value in test [2] is reported as “have activity to inhibit the binding”.

B2: Fv(TU27): single chain polypeptide of 240 amino acids consisting only of V regions of TU27 anti-IL-2 receptor β chain antibody (protein)
scFv: MDILLTQSPAILSVSPGERVSFSCRASQSIGTSIHWYQQRTNGSPRLLIKYASESLSGIPSRFSGSGSGTDFTLSITSVDSEDIADYYCQQTNSWPTTFGGGTKLELKVDKSSGSGSESKSTQVKLEESGPGLVKPSQSLSLTCTVTGYPITSDYAWDWIRQFPGNKLEWMGYVSYSGSTDYNPSLKSRISISRDTSKNQFFLQLNSVTTEDTATYYCARGGFPYAMDYWGQGTTVTVSS
On to B2, for which the “activity to inhibit the binding of IL-2 to a β chain of an IL-2 receptor” value with β chain of IL-2 receptor is recorded as “have activity to inhibit the binding of IL-2”. For the same molecule, in test [2], the “activity to inhibit the binding between TU27 or TU25 monoclonal antibody and the β chain of IL-2 receptor” value is given as “have activity to inhibit the binding”.
